Measured values from patent US20150330993A1.

Biological target: purified human dimeric IgA (dIgA) (human)
Assay: ELISA, dIgA held on anti-IgA coated plates, detected with R/HpIgR, anti-secretory component and anti-mouse HRP

- lowest dIgA concentration tested, still detected: 31 ng/mL
Substance: chimeric rabbit/human polymeric Ig receptor R/HpIgR (rabbit domain 1, human domains 2-5) (from UniProt P01833 1-638)
